Source: publication PMC3229523, “Identification of Lactoferricin B Intracellular Targets Using an Escherichia coli Proteome Chip” (PLoS ONE, 2011)
Ends that are not written are not given here.

What was measured:
Experiment in all cases: fluorescence polarisation; 100 nM DyLight 549-labeled LfcinB as tracer; two-fold serial dilution of protein from 0.4 µM to 0.025 µM in PBS, 0.005% BSA, 0.01% Triton X-100; room temperature, 1 h; compared with BSA
Settings in all cases: both partners purified
[1] = target: T1, adenylate cyclase CyaA (E. coli K-12, UniProt P00936 1-848)
T1 construct: CyaA, adenylate cyclase, E. coli K-12
T1 sequence (looked up): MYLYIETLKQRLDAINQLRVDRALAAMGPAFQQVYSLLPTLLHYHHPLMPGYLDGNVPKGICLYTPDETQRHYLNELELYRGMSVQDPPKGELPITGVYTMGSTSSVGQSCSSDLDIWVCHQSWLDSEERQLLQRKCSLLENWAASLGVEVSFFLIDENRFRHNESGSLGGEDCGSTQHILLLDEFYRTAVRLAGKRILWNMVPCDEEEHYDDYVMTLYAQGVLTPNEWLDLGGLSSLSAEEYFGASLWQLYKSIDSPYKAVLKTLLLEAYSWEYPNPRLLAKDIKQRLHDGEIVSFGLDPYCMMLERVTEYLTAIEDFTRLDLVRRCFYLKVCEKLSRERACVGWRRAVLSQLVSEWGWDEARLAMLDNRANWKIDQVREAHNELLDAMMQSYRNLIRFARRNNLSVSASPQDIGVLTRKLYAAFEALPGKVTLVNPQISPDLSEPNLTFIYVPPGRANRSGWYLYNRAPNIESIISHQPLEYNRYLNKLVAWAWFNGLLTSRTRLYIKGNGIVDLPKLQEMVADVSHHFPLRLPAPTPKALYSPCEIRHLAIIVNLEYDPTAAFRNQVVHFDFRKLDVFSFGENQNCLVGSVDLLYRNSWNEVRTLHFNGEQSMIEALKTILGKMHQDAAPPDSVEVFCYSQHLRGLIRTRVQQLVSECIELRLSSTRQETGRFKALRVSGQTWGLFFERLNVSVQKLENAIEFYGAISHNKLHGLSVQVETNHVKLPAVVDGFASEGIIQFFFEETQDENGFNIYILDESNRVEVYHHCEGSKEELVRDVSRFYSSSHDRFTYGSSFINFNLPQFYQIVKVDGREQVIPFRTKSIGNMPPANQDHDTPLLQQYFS

[2] = target: T2, HyaF (E. coli K-12, UniProt P19932 1-285)
T2 construct: HyaF, E. coli K-12
T2 sequence (looked up): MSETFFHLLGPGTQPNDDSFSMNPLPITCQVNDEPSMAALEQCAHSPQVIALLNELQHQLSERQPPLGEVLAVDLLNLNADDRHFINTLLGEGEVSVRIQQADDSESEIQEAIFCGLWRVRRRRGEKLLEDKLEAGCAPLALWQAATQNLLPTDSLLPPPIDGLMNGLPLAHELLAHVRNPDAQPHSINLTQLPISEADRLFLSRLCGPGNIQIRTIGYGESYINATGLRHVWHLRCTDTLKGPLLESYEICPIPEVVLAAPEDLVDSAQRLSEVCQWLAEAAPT

[3] = target: T3, MetL (E. coli K-12, UniProt P00562 1-810)
T3 construct: MetL, E. coli K-12
T3 sequence (looked up): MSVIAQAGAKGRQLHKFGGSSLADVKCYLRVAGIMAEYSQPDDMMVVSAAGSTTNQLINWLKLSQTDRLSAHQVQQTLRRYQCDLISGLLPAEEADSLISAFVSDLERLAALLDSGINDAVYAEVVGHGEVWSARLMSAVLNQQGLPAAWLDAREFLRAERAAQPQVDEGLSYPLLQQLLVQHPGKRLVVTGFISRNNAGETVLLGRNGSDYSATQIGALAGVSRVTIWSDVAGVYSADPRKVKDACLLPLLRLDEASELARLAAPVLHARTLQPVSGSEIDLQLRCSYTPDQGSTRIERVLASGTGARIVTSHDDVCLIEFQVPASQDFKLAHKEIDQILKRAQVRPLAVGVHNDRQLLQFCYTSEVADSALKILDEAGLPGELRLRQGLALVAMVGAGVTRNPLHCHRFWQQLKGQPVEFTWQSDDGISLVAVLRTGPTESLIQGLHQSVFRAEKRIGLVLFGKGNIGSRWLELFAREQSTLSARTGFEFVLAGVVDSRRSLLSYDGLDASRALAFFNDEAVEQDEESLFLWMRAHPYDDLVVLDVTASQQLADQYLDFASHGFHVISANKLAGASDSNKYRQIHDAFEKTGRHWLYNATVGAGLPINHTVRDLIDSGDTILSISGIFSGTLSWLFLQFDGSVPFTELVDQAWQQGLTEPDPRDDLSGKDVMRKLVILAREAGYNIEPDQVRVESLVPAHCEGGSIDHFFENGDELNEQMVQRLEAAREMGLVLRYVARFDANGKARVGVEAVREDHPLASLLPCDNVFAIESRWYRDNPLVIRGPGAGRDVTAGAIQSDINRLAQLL

[4] = target: T4, ribonucleoside-diphosphate reductase 2, β subunit (E. coli K-12, UniProt P37146 1-319)
T4 construct: NrdF, ribonucleoside-diphosphate reductase 2, β subunit, E. coli K-12; no measurement of the oligomer here; also called NrdF

Measured: binding result

T4 sequence (P37146 whole entry): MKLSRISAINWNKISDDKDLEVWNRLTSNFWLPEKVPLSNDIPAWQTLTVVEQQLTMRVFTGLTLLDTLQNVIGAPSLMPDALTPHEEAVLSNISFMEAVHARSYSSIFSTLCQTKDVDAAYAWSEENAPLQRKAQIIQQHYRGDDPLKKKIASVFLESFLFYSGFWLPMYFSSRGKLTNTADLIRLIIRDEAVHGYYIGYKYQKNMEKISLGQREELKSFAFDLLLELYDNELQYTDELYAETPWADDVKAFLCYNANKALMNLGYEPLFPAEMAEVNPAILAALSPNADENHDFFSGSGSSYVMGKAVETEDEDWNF

B1: DyLight 549-labeled Lactoferricin B (peptide, UniProt P24627 36-60, looked up)
peptide: FKCRRWQWRMKKLGAPSITCVRRAF
modifications: ends and bridges not checked; also: DyLight 549 label, sites not given here
notes: lactoferricin B (LfcinB), cationic antimicrobial peptide of 25 amino acids; also called fluorescence-labeled LfcinB; LfcinB; source: bought: Kelowna Inc; labelled with DyLight 549-NHS ester, desalted
binds: all assays above
